Columns and labels:
FGF1 = FGF1 (UniProt P05230); assay: SPR
FGF8b = assay: SPR

Chain of FGF1 (P05230 whole entry): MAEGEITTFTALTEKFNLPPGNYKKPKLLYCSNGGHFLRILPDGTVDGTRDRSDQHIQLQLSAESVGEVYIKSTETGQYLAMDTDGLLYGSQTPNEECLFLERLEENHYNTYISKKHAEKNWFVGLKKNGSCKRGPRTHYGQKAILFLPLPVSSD

Row | Kd (FGF1) [nM] | Kd (FGF8b) [nM] | Substance
1 | 310 | 367 | D1-D2-D3^ΔAB/linker (FGFR3c), naturally occurring isoform of FGFR3c lacking the AB/linker (domain or fragment)
2 |  | 888 | D1-AB-D2-D3 (FGFR3c), full-length FGFR3c ectodomain (from UniProt P22607 23-375) (domain or fragment)

From paper PMC3378326
